Our source for the Km, kcat and kcat/Km values is paper PMC3078926, “Epistatic Roles for Pseudomonas aeruginosa MutS and DinB (DNA Pol IV) in Coping with Reactive Oxygen Species-Induced DNA Damage” (PLoS ONE, 2011).

Substrate in data set [1]: Nc1ccn([C@H]2C[C@H](O)[C@@H](COP(=O)(O)OP(=O)(O)OP(=O)(O)O)O2)c(=O)n1
The data set can be described thus: purified protein. The data set is classed as biochemical, Pseudomonas aeruginosa. The note with it: opposite undamaged template dG, 13/20-mer primer/template DNA 100 nM, 200 nM DinB, 10 mM MgCl2, pH 7.5, 25 °C.

Substrate in data set [2]: Nc1ncnc2c1ncn2[C@H]1C[C@H](O)[C@@H](COP(=O)(O)OP(=O)(O)OP(=O)(O)O)O1
Briefly: purified protein. It is filed as biochemical, Pseudomonas aeruginosa. To be noted: opposite template 8-oxo-dG (lesion), 13/20 8-oxo-dG-mer DNA 100 nM, 200 nM DinB, 10 mM MgCl2, pH 7.5, 25 °C.

B1: P. aeruginosa DinB (DNA Pol IV) (Pseudomonas aeruginosa PAO1) (protein)
chain: MRKIIHIDCDCFYAALEMRDDPSLRGKALAVGGSPDKRGVVATCSYEARAYGVRSAMAMRTALKLCPDLLVVRPRFDVYRAVSKQIHAIFRDYTDLIEPLSLDEAYLDVSASPHFAGSATRIAQDIRRRVAEELHITVSAGVAPNKFLAKIASDWRKPDGLFVITPEQVDGFVAELPVAKLHGVGKVTAERLARMGIRTCADLRQGSKLSLVREFGSFGERLWGLAHGIDERPVEVDSRRQSVSVECTFDRDLPDLAACLEELPTLLEELDGRLQRLDGSYRPDKPFVKLKFHDFTQTTVEQSGAGRDLESYRQLLGQAFARGNRPVRLIGVGVRLLDLQGAHEQLRLF
notes: C-terminally hexahistidine-tagged, recombinant, purified as described earlier
One may read the Km as the concentration of substrate that gives half-maximal velocity. The kcat is the number of substrate molecules converted per active site and unit of time at saturation. As usually defined, the kcat/Km is the second-order rate constant that governs catalysis at low substrate concentration. As to B1, in data set [1], the Km stood at 5.4 ± 2.3 µM, the kcat turned out to be 0.12 ± 0.01 s⁻¹ and the kcat/Km is 22000 M⁻¹ s⁻¹. For the same protein, in data set [2], the Michaelis-Menten constant (Km) worked out at 15 ± 5.0 µM, the turnover number (kcat) is 0.066 ± 0.006 s⁻¹ and the catalytic efficiency (kcat/Km) was 4000 M⁻¹ s⁻¹.
